Data reported in paper PMC9482650, “Quantitative fragmentomics allow affinity mapping of interactomes” (Nature Communications, 2022).

T1: CARD11, Q9BXL7
T1 sequence (Q9BXL7 662-765, limits assumed, looked up): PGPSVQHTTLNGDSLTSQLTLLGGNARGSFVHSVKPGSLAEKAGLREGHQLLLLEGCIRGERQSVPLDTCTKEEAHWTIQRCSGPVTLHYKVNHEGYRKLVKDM

T2: TJP3_3, O95049
T2 sequence (O95049 375-456, limits assumed, looked up): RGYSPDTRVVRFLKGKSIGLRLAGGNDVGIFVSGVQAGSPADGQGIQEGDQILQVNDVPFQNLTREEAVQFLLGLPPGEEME

T3: ARHGEF11, O15085
T3 sequence (O15085 42-136, limits assumed, looked up): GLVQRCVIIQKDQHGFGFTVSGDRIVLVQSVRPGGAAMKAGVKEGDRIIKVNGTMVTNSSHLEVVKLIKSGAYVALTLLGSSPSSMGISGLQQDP

T4: DVL3, Q92997
T4 sequence (Q92997 244-331, limits assumed, looked up): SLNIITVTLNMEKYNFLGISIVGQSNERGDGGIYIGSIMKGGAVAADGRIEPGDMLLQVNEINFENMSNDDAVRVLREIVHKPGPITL

T5: SNTA1, Q13424
T5 sequence (Q13424 82-180, limits assumed, looked up): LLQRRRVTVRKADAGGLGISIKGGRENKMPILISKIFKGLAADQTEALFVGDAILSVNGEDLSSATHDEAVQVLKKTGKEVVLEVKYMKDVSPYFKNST

T6: NHERF3_1, Q5T2W1
T6 sequence (Q5T2W1 4-100, limits assumed, looked up): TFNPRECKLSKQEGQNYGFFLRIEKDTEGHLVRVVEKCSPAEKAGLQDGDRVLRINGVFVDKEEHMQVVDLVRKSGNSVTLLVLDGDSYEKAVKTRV

T7: GRIP1_2, Q9Y3R0
T7 sequence (Q9Y3R0 145-248, limits assumed, looked up): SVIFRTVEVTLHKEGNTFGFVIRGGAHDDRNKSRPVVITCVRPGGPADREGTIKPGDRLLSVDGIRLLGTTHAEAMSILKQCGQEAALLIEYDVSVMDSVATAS

T8: PCLO, Q9Y6V0
T8 sequence (Q9Y6V0 4491-4600, limits assumed, looked up): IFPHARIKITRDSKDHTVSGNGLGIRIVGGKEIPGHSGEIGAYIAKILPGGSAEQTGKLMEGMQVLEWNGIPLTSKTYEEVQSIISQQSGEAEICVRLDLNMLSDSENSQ

T9: TIAM2, Q8IVF5
T9 sequence (Q8IVF5 885-986, limits assumed, looked up): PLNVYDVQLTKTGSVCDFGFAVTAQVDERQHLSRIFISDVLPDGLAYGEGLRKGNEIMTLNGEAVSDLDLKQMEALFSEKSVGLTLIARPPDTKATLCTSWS

T10: MPP6, Q9NZW5
T10 sequence (Q9NZW5 125-219, limits assumed, looked up): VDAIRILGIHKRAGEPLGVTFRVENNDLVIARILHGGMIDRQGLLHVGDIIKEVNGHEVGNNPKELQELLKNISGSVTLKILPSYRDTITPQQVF

T11: APBA2_1, Q99767
T11 sequence (Q99767 563-664, limits assumed, looked up): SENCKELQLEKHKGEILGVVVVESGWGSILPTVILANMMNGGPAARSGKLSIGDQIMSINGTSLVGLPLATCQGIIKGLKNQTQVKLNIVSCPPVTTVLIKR

T12: FRMPD1, Q5SYB0
T12 sequence (Q5SYB0 52-145, limits assumed, looked up): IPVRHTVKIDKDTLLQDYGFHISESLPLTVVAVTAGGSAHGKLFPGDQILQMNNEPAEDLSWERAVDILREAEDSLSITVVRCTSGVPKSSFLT

T13: APBA3_1, O96018
T13 sequence (O96018 389-490, limits assumed, looked up): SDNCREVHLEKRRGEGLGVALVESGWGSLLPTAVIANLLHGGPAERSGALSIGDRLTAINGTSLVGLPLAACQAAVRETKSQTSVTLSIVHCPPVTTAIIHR


These binders were tested against PICK1, Q9NRD5 (assay: holdup assay). Details: plain residues with an end cap or a label only (N-terminal biotin on a linker: ado-ado).
Parameters: key: below the threshold = too weak to quantify, mostly under pKd 3.1 to 4

Chain of PICK1, Q9NRD5 (Q9NRD5 17-115): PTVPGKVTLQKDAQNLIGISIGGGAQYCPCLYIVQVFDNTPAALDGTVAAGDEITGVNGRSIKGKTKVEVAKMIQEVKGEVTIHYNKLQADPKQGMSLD

Binder | pKd
QYPGSPDSWV [PKP4, Q99569] | below the threshold
LGHTPFVDEL [UQCRC2, P22695] | 4.09

Each binder was assayed against GRIP2_3, Q9C0E4 (assay: holdup assay). Details: plain residues with an end cap or a label only (N-terminal biotin on a linker: ado-ado).
Parameters: key: below the threshold = too weak to quantify, mostly under pKd 3.1 to 4

Chain of GRIP2_3, Q9C0E4 (Q9C0E4 238-339): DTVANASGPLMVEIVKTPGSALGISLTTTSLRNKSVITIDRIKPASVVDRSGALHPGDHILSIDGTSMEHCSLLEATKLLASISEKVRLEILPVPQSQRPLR

Binder | pKd
QYPGSPDSWV [PKP4, Q99569] | below the threshold
LGHTPFVDEL [UQCRC2, P22695] | below the threshold

What follows are binders tested against NOS1, P29475 (assay: holdup assay). Details: plain residues with an end cap or a label only (N-terminal biotin on a linker: ado-ado).
Parameters: key: below the threshold = too weak to quantify, mostly under pKd 3.1 to 4

Chain of NOS1, P29475 (P29475 9-101): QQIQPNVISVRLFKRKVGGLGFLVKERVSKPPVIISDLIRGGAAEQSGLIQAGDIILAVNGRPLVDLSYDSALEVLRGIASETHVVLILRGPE

Binder | pKd
QYPGSPDSWV [PKP4, Q99569] | 3.78
LGHTPFVDEL [UQCRC2, P22695] | below the threshold

Each binder was assayed against T1, CARD11, Q9BXL7 (assay: holdup assay). Details: plain residues with an end cap or a label only (N-terminal biotin on a linker: ado-ado).
Parameters: key: below the threshold = too weak to quantify, mostly under pKd 3.1 to 4

Binder | pKd
QYPGSPDSWV [PKP4, Q99569] | below the threshold
LGHTPFVDEL [UQCRC2, P22695] | 3.53

These binders were tested against NHERF4_2, Q86UT5 (assay: holdup assay). Details: plain residues with an end cap or a label only (N-terminal biotin on a linker: ado-ado).
Parameters: key: below the threshold = too weak to quantify, mostly under pKd 3.1 to 4

Chain of NHERF4_2, Q86UT5 (Q86UT5 220-308): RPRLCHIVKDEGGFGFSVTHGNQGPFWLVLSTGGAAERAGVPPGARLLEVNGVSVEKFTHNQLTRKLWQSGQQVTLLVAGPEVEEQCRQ

Binder | pKd
QYPGSPDSWV [PKP4, Q99569] | below the threshold
LGHTPFVDEL [UQCRC2, P22695] | below the threshold

These binders were tested against T2, TJP3_3, O95049 (assay: holdup assay). Details: plain residues with an end cap or a label only (N-terminal biotin on a linker: ado-ado).
Parameters: key: below the threshold = too weak to quantify, mostly under pKd 3.1 to 4

Binder | pKd
QYPGSPDSWV [PKP4, Q99569] | 4.86
LGHTPFVDEL [UQCRC2, P22695] | below the threshold

These binders were tested against DLG5_1, Q8TDM6 (assay: holdup assay). Details: plain residues with an end cap or a label only (N-terminal biotin on a linker: ado-ado).
Parameters: key: below the threshold = too weak to quantify, mostly under pKd 3.1 to 4

Chain of DLG5_1, Q8TDM6 (Q8TDM6 617-713): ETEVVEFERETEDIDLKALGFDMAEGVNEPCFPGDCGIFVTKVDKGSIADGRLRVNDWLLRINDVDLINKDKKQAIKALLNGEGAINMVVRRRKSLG

Binder | pKd
QYPGSPDSWV [PKP4, Q99569] | below the threshold
LGHTPFVDEL [UQCRC2, P22695] | below the threshold

What follows are binders tested against CASK, O14936 (assay: holdup assay). Details: plain residues with an end cap or a label only (N-terminal biotin on a linker: ado-ado).
Parameters: key: below the threshold = too weak to quantify, mostly under pKd 3.1 to 4

Chain of CASK, O14936 (O14936 487-570): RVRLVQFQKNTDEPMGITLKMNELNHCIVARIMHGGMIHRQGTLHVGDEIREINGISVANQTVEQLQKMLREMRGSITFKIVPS

Binder | pKd
QYPGSPDSWV [PKP4, Q99569] | 3.74
LGHTPFVDEL [UQCRC2, P22695] | below the threshold

Each binder was assayed against T3, ARHGEF11, O15085 (assay: holdup assay). Details: plain residues with an end cap or a label only (N-terminal biotin on a linker: ado-ado).
Parameters: key: below the threshold = too weak to quantify, mostly under pKd 3.1 to 4

Binder | pKd
QYPGSPDSWV [PKP4, Q99569] | below the threshold
LGHTPFVDEL [UQCRC2, P22695] | 3.79

The binders below were run against T4, DVL3, Q92997 (assay: holdup assay). Details: plain residues with an end cap or a label only (N-terminal biotin on a linker: ado-ado).
Parameters: key: below the threshold = too weak to quantify, mostly under pKd 3.1 to 4

Binder | pKd
QYPGSPDSWV [PKP4, Q99569] | 3.93
LGHTPFVDEL [UQCRC2, P22695] | below the threshold

What follows are binders tested against ARHGEF12, Q9NZN5-2 (assay: holdup assay). Details: plain residues with an end cap or a label only (N-terminal biotin on a linker: ado-ado).
Parameters: key: below the threshold = too weak to quantify, mostly under pKd 3.1 to 4

Chain of ARHGEF12, Q9NZN5-2 (Q9NZN5 other isoform, or with tags, fused parts or gaps): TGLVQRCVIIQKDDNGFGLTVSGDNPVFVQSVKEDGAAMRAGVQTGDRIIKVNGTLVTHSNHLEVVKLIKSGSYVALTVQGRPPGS

Binder | pKd
QYPGSPDSWV [PKP4, Q99569] | 3.54
LGHTPFVDEL [UQCRC2, P22695] | below the threshold

These binders were tested against T5, SNTA1, Q13424 (assay: holdup assay). Details: plain residues with an end cap or a label only (N-terminal biotin on a linker: ado-ado).
Parameters: key: below the threshold = too weak to quantify, mostly under pKd 3.1 to 4

Binder | pKd
QYPGSPDSWV [PKP4, Q99569] | 4.13
LGHTPFVDEL [UQCRC2, P22695] | below the threshold

What follows are binders tested against T6, NHERF3_1, Q5T2W1 (assay: holdup assay). Details: plain residues with an end cap or a label only (N-terminal biotin on a linker: ado-ado).
Parameters: key: below the threshold = too weak to quantify, mostly under pKd 3.1 to 4

Binder | pKd
QYPGSPDSWV [PKP4, Q99569] | below the threshold
LGHTPFVDEL [UQCRC2, P22695] | 4.73

The binders below were run against T7, GRIP1_2, Q9Y3R0 (assay: holdup assay). Details: plain residues with an end cap or a label only (N-terminal biotin on a linker: ado-ado).
Parameters: key: below the threshold = too weak to quantify, mostly under pKd 3.1 to 4

Binder | pKd
QYPGSPDSWV [PKP4, Q99569] | below the threshold
LGHTPFVDEL [UQCRC2, P22695] | below the threshold

Each binder was assayed against T8, PCLO, Q9Y6V0 (assay: holdup assay). Details: plain residues with an end cap or a label only (N-terminal biotin on a linker: ado-ado).
Parameters: key: below the threshold = too weak to quantify, mostly under pKd 3.1 to 4

Binder | pKd
QYPGSPDSWV [PKP4, Q99569] | below the threshold
LGHTPFVDEL [UQCRC2, P22695] | below the threshold

What follows are binders tested against MAGI2_6, Q86UL8 (assay: holdup assay). Details: plain residues with an end cap or a label only (N-terminal biotin on a linker: ado-ado).
Parameters: key: below the threshold = too weak to quantify, mostly under pKd 3.1 to 4

Chain of MAGI2_6, Q86UL8 (Q86UL8 1141-1229): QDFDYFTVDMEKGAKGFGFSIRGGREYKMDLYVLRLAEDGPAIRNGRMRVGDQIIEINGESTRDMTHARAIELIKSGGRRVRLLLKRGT

Binder | pKd
QYPGSPDSWV [PKP4, Q99569] | 5.4
LGHTPFVDEL [UQCRC2, P22695] | below the threshold

Each binder was assayed against GRIP2_6, Q9C0E4 (assay: holdup assay). Details: plain residues with an end cap or a label only (N-terminal biotin on a linker: ado-ado).
Parameters: key: below the threshold = too weak to quantify, mostly under pKd 3.1 to 4

Chain of GRIP2_6, Q9C0E4 (Q9C0E4 648-740): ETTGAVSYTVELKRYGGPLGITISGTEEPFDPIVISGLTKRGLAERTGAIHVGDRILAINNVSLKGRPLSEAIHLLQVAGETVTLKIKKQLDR

Binder | pKd
QYPGSPDSWV [PKP4, Q99569] | 3.51
LGHTPFVDEL [UQCRC2, P22695] | below the threshold

The binders below were run against Inadl_6, Q8NI35 (assay: holdup assay). Details: plain residues with an end cap or a label only (N-terminal biotin on a linker: ado-ado).
Parameters: key: below the threshold = too weak to quantify, mostly under pKd 3.1 to 4

Chain of Inadl_6, Q8NI35 (Q8NI35 1058-1167): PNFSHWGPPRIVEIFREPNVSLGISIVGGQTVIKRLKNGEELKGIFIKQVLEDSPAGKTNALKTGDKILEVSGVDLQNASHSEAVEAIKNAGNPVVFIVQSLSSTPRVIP

Binder | pKd
QYPGSPDSWV [PKP4, Q99569] | 4.21
LGHTPFVDEL [UQCRC2, P22695] | below the threshold

The binders below were run against T9, TIAM2, Q8IVF5 (assay: holdup assay). Details: plain residues with an end cap or a label only (N-terminal biotin on a linker: ado-ado).
Parameters: key: below the threshold = too weak to quantify, mostly under pKd 3.1 to 4

Binder | pKd
QYPGSPDSWV [PKP4, Q99569] | below the threshold
LGHTPFVDEL [UQCRC2, P22695] | below the threshold

The binders below were run against T10, MPP6, Q9NZW5 (assay: holdup assay). Details: plain residues with an end cap or a label only (N-terminal biotin on a linker: ado-ado).
Parameters: key: below the threshold = too weak to quantify, mostly under pKd 3.1 to 4

Binder | pKd
QYPGSPDSWV [PKP4, Q99569] | below the threshold
LGHTPFVDEL [UQCRC2, P22695] | below the threshold

Each binder was assayed against HTRA2, O43464 (assay: holdup assay). Details: plain residues with an end cap or a label only (N-terminal biotin on a linker: ado-ado).
Parameters: key: below the threshold = too weak to quantify, mostly under pKd 3.1 to 4

Chain of HTRA2, O43464 (O43464 355-458): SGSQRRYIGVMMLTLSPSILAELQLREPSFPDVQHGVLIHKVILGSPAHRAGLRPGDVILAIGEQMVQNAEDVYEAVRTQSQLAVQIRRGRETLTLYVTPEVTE

Binder | pKd
QYPGSPDSWV [PKP4, Q99569] | 4.05
LGHTPFVDEL [UQCRC2, P22695] | below the threshold

What follows are binders tested against T11, APBA2_1, Q99767 (assay: holdup assay). Details: plain residues with an end cap or a label only (N-terminal biotin on a linker: ado-ado).
Parameters: key: below the threshold = too weak to quantify, mostly under pKd 3.1 to 4

Binder | pKd
QYPGSPDSWV [PKP4, Q99569] | below the threshold
LGHTPFVDEL [UQCRC2, P22695] | below the threshold

The binders below were run against T12, FRMPD1, Q5SYB0 (assay: holdup assay). Details: plain residues with an end cap or a label only (N-terminal biotin on a linker: ado-ado).
Parameters: key: below the threshold = too weak to quantify, mostly under pKd 3.1 to 4

Binder | pKd
QYPGSPDSWV [PKP4, Q99569] | below the threshold
LGHTPFVDEL [UQCRC2, P22695] | below the threshold

The binders below were run against T13, APBA3_1, O96018 (assay: holdup assay). Details: plain residues with an end cap or a label only (N-terminal biotin on a linker: ado-ado).
Parameters: key: below the threshold = too weak to quantify, mostly under pKd 3.1 to 4

Binder | pKd
QYPGSPDSWV [PKP4, Q99569] | 3.63
LGHTPFVDEL [UQCRC2, P22695] | below the threshold

Each binder was assayed against IL16_1, Q14005 (assay: holdup assay). Details: plain residues with an end cap or a label only (N-terminal biotin on a linker: ado-ado).
Parameters: key: below the threshold = too weak to quantify, mostly under pKd 3.1 to 4

Chain of IL16_1, Q14005 (Q14005 210-306): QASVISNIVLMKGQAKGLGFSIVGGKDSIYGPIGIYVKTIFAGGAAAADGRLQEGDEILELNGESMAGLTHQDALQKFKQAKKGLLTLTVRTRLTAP

Binder | pKd
QYPGSPDSWV [PKP4, Q99569] | 4.13
LGHTPFVDEL [UQCRC2, P22695] | 3.49
